Data as given in PMC10941009, “Structural basis for specific DNA sequence recognition by the transcription factor NFIL3” (The Journal of Biological Chemistry, 2024).
Changes are numbered by the printed parent chain. Names may count otherwise.

Legend:
NFIL3 bZIP (long) = molecular target: T1, NFIL3 bZIP (long) (human, UniProt Q16649 65-161); experiment: ITC; ITC: 20 mM Tris pH 7.5, 150 mM NaCl, 25 °C; EMSA: same buffer, 4 °C, 6% native gel in 0.5x TBE; details: protein: recombinant, tags: His6-SUMO removed by TEV, chain copies: 2, blunt
T1 sequence: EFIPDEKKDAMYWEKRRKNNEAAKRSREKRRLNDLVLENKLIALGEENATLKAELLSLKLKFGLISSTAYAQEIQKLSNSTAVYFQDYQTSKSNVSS

C/EBPζ bZIP = C/EBPζ bZIP (human, UniProt P35638 88-162); experiment: as above; details: protein: recombinant; tags: His6-SUMO removed by TEV; chain copies: 2; blunt
NFIL3 bZIP (short) = molecular target: T2, NFIL3 bZIP (short) (human, UniProt Q16649 65-136); experiment: as above; details: protein: recombinant; tags: His6-SUMO removed by TEV; chain copies: 2; blunt
T2 sequence: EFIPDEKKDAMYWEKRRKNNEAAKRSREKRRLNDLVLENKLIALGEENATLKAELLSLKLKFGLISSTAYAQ

C/EBPα bZIP = C/EBPα bZIP (human, UniProt P49715 281-340); experiment: as above; details: protein: recombinant; tags: His6-SUMO removed by TEV; chain copies: 2; blunt
C/EBPα bZIP, sequence (P49715 281-340): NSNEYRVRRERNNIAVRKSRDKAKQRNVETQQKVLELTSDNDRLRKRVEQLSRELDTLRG

C/EBPβ bZIP = C/EBPβ bZIP (human, UniProt P17676 259-336); experiment: as above; details: protein: recombinant; tags: His6-SUMO removed by TEV; chain copies: 2; blunt
C/EBPβ bZIP, sequence (P17676 259-336): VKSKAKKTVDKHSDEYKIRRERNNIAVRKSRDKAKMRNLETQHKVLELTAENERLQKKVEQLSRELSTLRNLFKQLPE

[1] = molecular target: the molecule itself; experiment: SEC; Superdex 200 10/300 GL, 20 mM Tris pH 7.5, 150 mM NaCl; NFIL3 bZIP domain WT 2 mg/ml apo and NFIL3 mutants, against protein standard
[2] = molecular target: the molecule itself; experiment: SEC; gel filtration chromatography of the recombinant C/EBPζ bZIP domain; conditions not told for this protein

B1: cTACGTAA (dsDNA)
DNA 1: CACTACGTAATG
DNA 2: CATTACGTAGTG
Kd (NFIL3 bZIP (long)): 2430 ± 150 nM

B2: TGATGTAA (dsDNA)
DNA 1: GATGATGTAATC
DNA 2: GATTACATCATC
binding result (C/EBPζ bZIP): no binding

B3: TTAaGTAA (dsDNA)
DNA 1: CATTAAGTAATG
DNA 2: CATTACTTAATG
Kd (NFIL3 bZIP (long)): 120 ± 10 nM

B4: TTACGTAA (dsDNA)
DNA 1: CATTACGTAATG
DNA 2: CATTACGTAATG
Kd (NFIL3 bZIP (short)): 52 ± 17 nM
Kd (C/EBPα bZIP): 350 ± 30 nM
Kd (NFIL3 bZIP (long)): 42 ± 7 nM
binding result (C/EBPζ bZIP): no binding
Kd (C/EBPβ bZIP): 18 ± 3 nM

B5: ccgCGTAA (dsDNA)
DNA 1: CACCGCGTAATG
DNA 2: CATTACGCGGTG
Kd (NFIL3 bZIP (long)): 6890 ± 340 nM

B6: TTgCGTAA (dsDNA)
DNA 1: CATTGCGTAATG
DNA 2: CATTACGCAATG
Kd (NFIL3 bZIP (long)): 180 ± 20 nM

B7: TcACGTAA (dsDNA)
DNA 1: CATCACGTAATG
DNA 2: CATTACGTGATG
Kd (NFIL3 bZIP (long)): 1660 ± 110 nM

B8: T/G mismatch TTAt (dsDNA)
DNA 1: CATTATGTAATG
DNA 2: CATTACGTAATG
modifications: T/G mismatch at position 6 of strand 1
Kd (NFIL3 bZIP (long); one T/G mismatch): 290 ± 30 nM

B9: TTAtGTAA (dsDNA)
DNA 1: CATTATGTAATG
DNA 2: CATTACATAATG
Kd (NFIL3 bZIP (long)): 520 ± 30 nM

B10: TTAmCGTAA (dsDNA)
DNA 1: CATTACGTAATG
DNA 2: CATTACGTAATG
modifications: 5-methyl-C at position 6 of the printed strand; second strand not printed (palindrome, methylation of it not stated)
Kd (NFIL3 bZIP (long)): 590 ± 89 nM

B11: mutated flanking DNA (dsDNA)
DNA 1: CGTTACGTAATG
DNA 2: CATTACGTAACG
Kd (NFIL3 bZIP (long)): 67 ± 14 nM

B12: NFIL3 bZIP domain (aa 65-161) (domain or fragment, human, UniProt Q16649 65-161, looked up)
chain: T1 sequence
notes: human NFIL3, bZIP domain, residues 65-161 (canonical bZIP helix aa 73-126 and an extra short helix aa 131-146); The methods of the size-exclusion run say only 'NFIL3 bZIP domain WT'; also called E4BP4; nuclear factor interleukin-3 regulated protein; source: E. coli BL21 (DE3), purified (Ni-NTA, TEV, anion exchange, gel filtration); not shown: His6, N-terminal, cleaved; SUMO, N-terminal, cleaved
stoichiometry N [1]: 2

B13: NFIL3 bZIP domain N112D mutant (domain or fragment, human, UniProt Q16649 65-161, looked up)
chain: T1 sequence with N48D
notes: human NFIL3, bZIP domain, residues 65-161 with N112D; also called NFIL3 (N112D); source: E. coli BL21 (DE3), purified as the wild-type protein; not shown: His6, N-terminal, cleaved; SUMO, N-terminal, cleaved
stoichiometry N [1]: 2

B14: C/EBPζ bZIP domain (aa 88-162) (domain or fragment, human, UniProt P35638 88-162, looked up)
chain: SSLAQEEEEEDQGRTRKRKQSGHSPARAGKQRMKEKEQENERKVAQLAEENERLKQEIERLTREVEATRRALIDR
notes: human C/EBPζ, bZIP domain, residues 88-162; source: E. coli BL21 (DE3), purified (Ni-NTA, TEV, anion exchange, gel filtration); not shown: His6, N-terminal, cleaved; SUMO, N-terminal, cleaved
stoichiometry N [2]: 2

B15: TTGCGCAA (dsDNA)
DNA 1: CATTGCGCAATG
DNA 2: CATTGCGCAATG
Kd (C/EBPα bZIP): 480 ± 70 nM
Kd (NFIL3 bZIP (long)): 810 ± 70 nM
binding result (C/EBPζ bZIP): no binding
Kd (C/EBPβ bZIP): 69 ± 9 nM
